Results: patent US20100204091A1 (YEDA RESEARCH AND DEVELOPMENT, published 2010)
Each block holds one binder with its values, some of them ahead of it. No end group written: not given here.

How the values were obtained:
FLAG tagged TRAF2 [1] = target: T1, FLAG tagged TRAF2 (UniProt Q12933 1-501); test: in vitro incubation of eluted FLAG TRAF2 with bacterial GST tagged SIVA2, anti-FLAG IP, anti SIVA blot
T1 construct: For in vitro assays purified on anti-FLAG M2 beads and eluted with FLAG peptide; also called FLAG-TRAF2
T1 sequence (looked up): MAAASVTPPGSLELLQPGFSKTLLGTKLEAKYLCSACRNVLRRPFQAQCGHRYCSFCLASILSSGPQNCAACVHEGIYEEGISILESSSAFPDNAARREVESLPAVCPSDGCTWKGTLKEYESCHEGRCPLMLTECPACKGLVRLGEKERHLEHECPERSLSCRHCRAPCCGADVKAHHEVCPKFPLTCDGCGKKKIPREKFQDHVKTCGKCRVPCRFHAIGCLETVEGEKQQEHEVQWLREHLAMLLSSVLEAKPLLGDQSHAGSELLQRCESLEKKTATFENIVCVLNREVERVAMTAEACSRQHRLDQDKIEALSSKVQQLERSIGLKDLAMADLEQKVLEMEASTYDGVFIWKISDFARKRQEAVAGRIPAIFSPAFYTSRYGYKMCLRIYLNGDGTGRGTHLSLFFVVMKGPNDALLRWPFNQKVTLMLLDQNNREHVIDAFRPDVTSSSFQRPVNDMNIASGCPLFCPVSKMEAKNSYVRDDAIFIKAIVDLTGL
Experimental: (§1) In order to explore whether TRAF2 binds to SIVA2, FLAG tagged TRAF2 was immuno-precipitated from transfected […] cells using anti-FLAG M2 beads. TRAF2 was eluted from the beads using FLAG peptide. The eluted FLAG tagged TRAF2 was incubated with recombinant (bacterially expressed) GST tagged SIVA2 or GST tagged ring finger mutant SIVA2 at 30° C. for one hour in a volume of 50 μl of buffer (30 mM HEPES, pH 7.6, 5 mM MgCl2, 0.2 mM DTT). Next, the binding mix was diluted to 1 ml to attain the following composition −30 mM HEPES, 5 mM MgCl2, 0.2 mM DTT, 150 mM NaCl, 1% Triton X100 and 1 mM EDTA. Immunoprecipitation was carried out with anti-FLAG for TRAF2 and Western blotting analysis was carried out with anti SIVA to detect coprecipitating SIVA. […] The latter was confirmed in the following experiment. HEK 293T cells were co-transfected with 12 ug of HIS-SIVA2 or deletions of SIVA2 lacking the ring finger (SIVA2 1-58 and SIVA 1-81) and FLAG-TRAF2 by calcium phosphate method. 24 hours post transfection; cells were harvested and lysed in 1% Triton containing lysis buffer. TRAF2 was immunoprecipitated using anti FLAG-M2 beads and coprecipitated SIVA2 was probed by Western blotting using anti HIS antibody. Total lysis in FIG. 11D show the expression levels of the proteins. […] (FIG. 11D).

[2] = target: T2, NF-κB-inducing kinase, NIK, (MAP3K14) (human, UniProt Q99558 1-947); test: yeast two-hybrid, human bone-marrow library, NIK as bait
T2 construct: in yeast two-hybrid used as bait fusion; also called myc-NIK; wild type NIK
Experimental: Yeast two-hybrid screening: The system used for screening was the Matchmaker version III (clontech). The prey was pre-transformed human bone marrow library (cat# HY4053AH) that offers high stringent quadruple drop out (QDO) selection along with a-gal assay. Clones growing on plates without LEU, TRP, HIS and ADE were reconfirmed by a-gal assay, which is much more specific than the usual, often leaky, b-gal assay. Plasmids of the positive clones were prepared as follows. Single clones were inoculated into QDO liquid broth and grown overnight at 37° C. Cells were pelleted at 10,000 g and resuspended in 200 μl of buffer containing 2% Triton X-100, 1% SDS, 100 mM NaCl, 10 mM Tris pH8.0, and 1 mM EDTA. The lysates were vortexed for 2 min after adding 200 μl of phenol: chloroform: isoamyl alcohol (25:24:1) and 0.3 g of 600 microns acid washed glass beads (Sigma). Supernatant was collected by centrifugation at 12,000 g and the DNA was precipitated by sodium acetate/ethanol precipitation method (Sambrook et al., 1989). Encoded inserts from the plasmids were amplified by PCR with the primers specific for the library vector pACT2. For further biochemical analysis of individual clones, the amplicons were directly cloned into the N-terminally HIS tagged mammalian expression vector pcDNA3.1 (Invitrogen).

FLAG tagged TRAF2 [3] = target: T1, FLAG tagged TRAF2; test: co-immunoprecipitation with anti FLAG-M2 beads from transfected HEK 293T cells, anti HIS blot
Experimental: as §1

[4] = target: T2, NF-κB-inducing kinase, NIK, (MAP3K14); test: co-immunoprecipitation from transfected cells (deletion analysis)

T2 sequence (Q99558 whole entry, the tested form may be a part): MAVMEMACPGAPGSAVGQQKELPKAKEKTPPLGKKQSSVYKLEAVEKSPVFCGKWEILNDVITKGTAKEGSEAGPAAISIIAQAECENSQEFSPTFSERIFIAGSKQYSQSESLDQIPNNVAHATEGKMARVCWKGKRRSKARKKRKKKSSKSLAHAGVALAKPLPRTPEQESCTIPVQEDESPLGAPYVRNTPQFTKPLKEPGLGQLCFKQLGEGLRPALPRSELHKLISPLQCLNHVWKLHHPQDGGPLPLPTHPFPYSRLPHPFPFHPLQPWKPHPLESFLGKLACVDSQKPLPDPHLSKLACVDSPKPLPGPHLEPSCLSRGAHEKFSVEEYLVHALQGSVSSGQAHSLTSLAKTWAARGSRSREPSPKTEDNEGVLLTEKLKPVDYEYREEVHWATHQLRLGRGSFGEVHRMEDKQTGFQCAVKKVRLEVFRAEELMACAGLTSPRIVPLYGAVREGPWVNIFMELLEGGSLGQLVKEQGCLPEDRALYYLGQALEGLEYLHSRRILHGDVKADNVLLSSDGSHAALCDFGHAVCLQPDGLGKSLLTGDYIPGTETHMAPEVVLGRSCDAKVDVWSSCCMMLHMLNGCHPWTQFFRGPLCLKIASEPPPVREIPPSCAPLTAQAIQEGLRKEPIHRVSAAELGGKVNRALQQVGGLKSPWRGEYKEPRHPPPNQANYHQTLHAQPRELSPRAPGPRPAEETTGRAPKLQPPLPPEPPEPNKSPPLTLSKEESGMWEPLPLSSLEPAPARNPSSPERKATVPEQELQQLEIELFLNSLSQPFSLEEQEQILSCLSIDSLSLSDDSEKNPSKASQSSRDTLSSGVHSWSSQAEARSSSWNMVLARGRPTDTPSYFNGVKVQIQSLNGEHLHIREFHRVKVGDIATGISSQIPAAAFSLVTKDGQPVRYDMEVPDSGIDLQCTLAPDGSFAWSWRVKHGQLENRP

binding result (FLAG tagged TRAF2 [1]): binds
B1: GST-SIVA2 (bacterially expressed GST tagged SIVA2) (other)
chain: MPKRSCPFADVAPLQLKVRVSQRELSRGVCAERYSQEVFDPSGVASIACSSCVRAVDGKAVCGQCERALCGQCVRTCWGCGSVACTLCGLVDCSDMYEKVLCTSCAMFET
notes: Cloned into pGEX and expressed in BL-21 cells; also called recombinant GST-SIVA; recombinant SIVA2; not shown: glutathione S-transferase tag of the pGEX vector

binding result [2]: binds
B2: SIVA-C (C-terminal part of SIVA, amino acids 123-175 in SIVA1 or 58-110 in SIVA2) (other)
chain: KAVCGQCERALCGQCVRTCWGCGSVACTLCGLVDCSDMYEKVLCTSCAMFET
notes: Prey fragment from a human bone marrow two-hybrid library; in mammalian cells HIS tagged; also called SIVA-C terminus; C-terminal fragment of SIVA

binding result (FLAG tagged TRAF2 [3]): no binding
binding result [4]: no binding
B3: SIVA2 1-58 (other)
chain: MPKRSCPFADVAPLQLKVRVSQRELSRGVCAERYSQEVFDPSGVASIACSSCVRAVDG
modifications: cysteine pairing not given here; also: His tag, sequence and position not given here
notes: HIS tagged deletion mutant lacking ring and zinc fingers; also called SIVA 1-58; SIVA2 N-terminus
